The results in this text go back to PMC8336837, “Structure of the human C9orf72-SMCR8 complex reveals a multivalent protein interaction architecture” (PLoS Biology, 2021).

The target of this experiment is T1, C9orf72 (full-length) (human, UniProt Q96LT7 1-481).
T1 construct: C9orf72, human, the longer isoform (481 AA); open reading frame commercially synthesized with codon optimization; also called Fl-C9orf72; C9orf72 Fl; source: Sf-9 insect cells, co-expressed with SMCR8 or SMCR8N-C, purified (Strep-Tactin, size-exclusion chromatography)
T1 sequence (looked up): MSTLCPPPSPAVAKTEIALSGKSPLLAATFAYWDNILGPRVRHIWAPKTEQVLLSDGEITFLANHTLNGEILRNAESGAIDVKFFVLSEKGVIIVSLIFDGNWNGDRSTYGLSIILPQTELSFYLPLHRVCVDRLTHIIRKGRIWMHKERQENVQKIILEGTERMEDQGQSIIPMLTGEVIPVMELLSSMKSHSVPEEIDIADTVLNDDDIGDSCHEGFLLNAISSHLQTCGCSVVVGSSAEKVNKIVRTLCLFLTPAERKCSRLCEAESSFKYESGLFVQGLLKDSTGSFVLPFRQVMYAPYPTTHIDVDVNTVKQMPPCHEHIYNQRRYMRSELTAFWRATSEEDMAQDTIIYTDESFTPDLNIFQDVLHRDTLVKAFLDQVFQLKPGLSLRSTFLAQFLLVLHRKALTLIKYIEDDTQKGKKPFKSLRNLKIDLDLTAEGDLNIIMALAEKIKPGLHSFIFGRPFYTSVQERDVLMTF
As to the kind of experiment: SEC; limited proteolysis: full-length C9orf72-SMCR8-WDR41 complex (0.93 mg) with trypsin (4.6 ug) 20 minutes on ice, then size-exclusion chromatography; bands of the peak fraction identified by tandem mass spectrometry. The following applies: both partners purified. For orientation: Size exclusion chromatography separates by hydrodynamic size, large species first.

B1: N-terminal domain of SMCR8 (SMCR8N), tryptic fragment (domain or fragment, human, UniProt Q8TEV9 1-439, looked up)
chain: MISAPDVVAFTKEEEYEEEPYNEPALPEEYSVPLFPFASQGANPWSKLSGAKFSRDFILISEFSEQVGPQPLLTIPNDTKVFGTFDLNYFSLRIMSVDYQASFVGHPPGSAYPKLNFVEDSKVVLGDSKEGAFAYVHHLTLYDLEARGFVRPFCMAYISADQHKIMQQFQELSAEFSRASECLKTGNRKAFAGELEKKLKDLDYTRTVLHTETEIQKKANDKGFYSSQAIEKANELASVEKSIIEHQDLLKQIRSYPHRKLKGHDLCPGEMEHIQDQASQASTTSNPDESADTDLYTCRPAYTPKLIKAKSTKCFDKKLKTLEELCDTEYFTQTLAQLSHIEHMFRGDLCYLLTSQIDRALLKQQHITNFLFEDFVEVDDRMVEKQESIPSKPSQDRPPSSSLEECPIPKVLISVGSYKSSVESVLIKMEQELGDEEYK
notes: SMCR8, human, residues 1 to 439, product of limited proteolysis identified by mass spectrometry; source: Sf-9 insect cells; purified full-length C9orf72-SMCR8-WDR41 complex cut with trypsin
Consider B1, for which the binding result is listed as “binds”.

B2: carboxyl-terminal domain of SMCR8 (SMCR8C), tryptic fragment (domain or fragment, human, UniProt Q8TEV9 620-937, looked up)
chain: RQKDQGFRVDFSVENANPSSRDNSCEGFPAYELDPSHLLASRDISKTSLDNYSDTTSYVSSVASTSSDRIPSAYPAGLSSDRHKKRAGQNALKFIRQYPFAHPAIYSLLSGRTLVVLGEDEAIVRKLVTALAIFVPSYGCYAKPVKHWASSPLHIMDFQKWKLIGLQRVASPAGAGTLHALSRYSRYTSILDLDNKTLRCPLYRGTLVPRLADHRTQIKRGSTYYLHVQSMLTQLCSKAFLYTFCHHLHLPTHDKETEELVASRQMSFLKLTLGLVNEDVRVVQYLAELLKLHYMQESPGTSHPMLRFDYVPSFLYKI
notes: SMCR8, human, residues 620 to 937, product of limited proteolysis identified by mass spectrometry; source: Sf-9 insect cells; purified full-length C9orf72-SMCR8-WDR41 complex cut with trypsin
On to B2, for which the binding result is “binds”.
